Data reported in US20200024330A1.

Columns and labels:
Assay in all cases: cell-based or functional assay
[1] = biological target: HIV-1 Env of isolate MG RM-A-008 (pseudovirus) (HIV-1)
[2] = biological target: HIV-1 Env of isolate MGRM-AE-005 (pseudovirus) (HIV-1)
[3] = biological target: HIV-1 Env of isolate 93UG077 (pseudovirus) (HIV-1)
[4] = biological target: HIV-1 Env of isolate MG RM-A-010 (pseudovirus) (HIV-1)
[5] = biological target: HIV-1 Env of isolate 94 KE 105 (pseudovirus) (HIV-1)
[6] = biological target: HIV-1 Env of isolate 92UG005 (subtype D), on pseudovirus (HIV-1)
[7] = biological target: HIV-1 Env of isolate MGRM-Chronic-B-002 (HIV-1)
[8] = biological target: HIV-1 Env of isolate VLGCA1 (pseudovirus) (HIV-1)
[9] = biological target: HIV-1 Env of isolate 98CN006 (subtype CRF08 BC), on pseudovirus (HIV-1)
[10] = biological target: HIV-1 Env of isolate MGRM-AE-003 (pseudovirus) (HIV-1)
[11] = biological target: HIV-1 Env of isolate 92RW008 (clade A), on pseudovirus (HIV-1)
[12] = biological target: HIV-1 Env of isolate 92UG001 (subtype D), on pseudovirus (HIV-1)
[13] = biological target: HIV-1 Env of isolate MGRM-D-003 (subtype D), on pseudovirus (HIV-1)
[14] = biological target: HIV-1 Env of isolate 93WR029 (pseudovirus) (HIV-1)
[15] = biological target: HIV-1 Env of isolate 92UG046 (subtype D), on pseudovirus (HIV-1)
[16] = biological target: HIV-1 Env of isolate MG RM-A-007 (pseudovirus) (HIV-1)
[17] = biological target: HIV-1 Env of isolate MGRM-AE-002 (pseudovirus) (HIV-1)
[18] = biological target: HIV-1 Env of isolate CAAN.A2 (HIV-1)
[19] = biological target: HIV-1 Env of isolate MGRM-AE-004 (pseudovirus) (HIV-1)
[20] = biological target: HIV-1 Env of isolate JRFL (HIV-1)
[21] = biological target: HIV-1 Env of isolate 92UG031 (pseudovirus) (HIV-1)
[22] = biological target: HIV-1 Env of isolate 94UG103 (pseudovirus) (HIV-1)
[23] = biological target: HIV-1 Env of isolate MG RM-A-006 (pseudovirus) (HIV-1)
[24] = biological target: HIV-1 Env of isolate MGRM-Chronic-B-001 (HIV-1)
[25] = biological target: HIV-1 Env of isolate MGRM-Chronic-B-003 (HIV-1)
[26] = biological target: HIV-1 Env of isolate MGRM-Chronic-B-004 (HIV-1)
[27] = biological target: HIV-1 Env of isolate 92UG024 (subtype D), on pseudovirus (HIV-1)
[28] = biological target: HIV-1 Env of isolate 92TH021 (pseudovirus) (HIV-1)
[29] = biological target: HIV-1 Env of isolate 6535.3 (HIV-1)
[30] = biological target: HIV-1 Env of isolate CMU02 (pseudovirus) (HIV-1)
[31] = biological target: HIV-1 Env of isolate 92WR020 (pseudovirus) (HIV-1)
[32] = biological target: HIV-1 Env of isolate 92RW009 (clade A), on pseudovirus (HIV-1)
[33] = biological target: HIV-1 Env of isolate MG RM-A-012 (pseudovirus) (HIV-1)
[34] = biological target: HIV-1 Env of isolate 92WR026 (pseudovirus) (HIV-1)
[35] = biological target: HIV-1 Env of isolate 98CN009 (subtype CRF07_BC), on pseudovirus (HIV-1)
[36] = biological target: HIV-1 Env of isolate MG RM-A-013 (pseudovirus) (HIV-1)
[37] = biological target: HIV-1 Env of isolate 92UG037 (pseudovirus) (HIV-1)
[38] = biological target: HIV-1 Env of isolate 92UG114 (subtype D), on pseudovirus (HIV-1)
[39] = biological target: HIV-1 Env of isolate APV_17 (HIV-1)
[40] = biological target: HIV-1 Env of isolate APV_6 (HIV-1)
[41] = biological target: HIV-1 Env of isolate 92BR020 (HIV-1)
[42] = biological target: HIV-1 Env of isolate MG RM-A-014 (pseudovirus) (HIV-1)
[43] = biological target: HIV-1 Env of isolate MGRM-D-004 (subtype D), on pseudovirus (HIV-1)
[44] = biological target: HIV-1 Env of isolate MGRM-D-008 (subtype D), on pseudovirus (HIV-1)
[45] = biological target: HIV-1 Env of isolate MGRM-AE-001 (pseudovirus) (HIV-1)
[46] = biological target: HIV-1 Env of isolate 92WR024 (pseudovirus) (HIV-1)
[47] = biological target: HIV-1 Env of isolate MG RM-A-009 (pseudovirus) (HIV-1)
[48] = biological target: HIV-1 Env of isolate 92WR021 (pseudovirus) (HIV-1)
[49] = biological target: HIV-1 Env of isolate MGRM-D-005 (subtype D), on pseudovirus (HIV-1)
[50] = biological target: HIV-1 Env of isolate 93TH305 (HIV-1)
[51] = biological target: HIV-1 92BR020 envelope glycoprotein (Env) on pseudovirus (HIV-1)
[52] = biological target: HIV-1 Env of isolate MGRM-Chronic-B-008 (HIV-1)
[53] = biological target: HIV-1 Env of isolate MGRM-D-002 (subtype D), on pseudovirus (HIV-1)
[54] = biological target: HIV-1 Env of isolate MG RM-A-005 (pseudovirus) (HIV-1)
[55] = biological target: HIV-1 92RW020 envelope glycoprotein (Env) on pseudovirus (HIV-1)
[56] = biological target: HIV-1 Env of isolate APV_13 (HIV-1)
[57] = biological target: HIV-1 Env of isolate MGRM-AE-006 (pseudovirus) (HIV-1)
[58] = biological target: HIV-1 Env of isolate MG RM-A-011 (pseudovirus) (HIV-1)
[59] = biological target: HIV-1 Env of isolate MGRM-D-001 (subtype D), on pseudovirus (HIV-1)

4995_E20 (PGT-142) (antibody), sequence (VH): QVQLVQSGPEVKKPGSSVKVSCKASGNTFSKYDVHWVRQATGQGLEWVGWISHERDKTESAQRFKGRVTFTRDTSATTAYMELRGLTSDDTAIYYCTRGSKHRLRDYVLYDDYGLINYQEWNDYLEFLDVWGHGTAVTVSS
4995_E20 (PGT-142) (antibody), sequence (VL): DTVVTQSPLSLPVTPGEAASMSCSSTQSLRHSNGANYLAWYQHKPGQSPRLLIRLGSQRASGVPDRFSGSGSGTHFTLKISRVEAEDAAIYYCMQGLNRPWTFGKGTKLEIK

4995_E20 (PGT-142) (antibody)
IC50 (µg/mL), pseudovirus neutralization [1]: > 50 µg/mL
IC50 (µg/mL), pseudovirus neutralization [2]: > 50 µg/mL
IC50 (µg/mL), pseudovirus neutralization [3]: > 50 µg/mL
IC50 (µg/mL), pseudovirus neutralization [4]: 0.015 µg/mL
IC50 (µg/mL), pseudovirus neutralization [5]: 0.19 µg/mL
IC50, pseudovirus neutralization [6]: > 50 µg/mL
IC50 [7]: > 50 µg/mL
IC50 (µg/mL), pseudovirus neutralization [8]: 2.75 µg/mL
IC50, pseudovirus neutralization [9]: > 50 µg/mL
IC50 (µg/mL), pseudovirus neutralization [10]: > 50 µg/mL
IC50, single-round pseudovirus neutralization [11]: 0.447 µg/mL
IC50, pseudovirus neutralization [12]: > 50 µg/mL
IC50, pseudovirus neutralization [13]: > 50 µg/mL
IC50 (µg/mL), pseudovirus neutralization [14]: 0.014 µg/mL
IC50, pseudovirus neutralization [15]: > 50 µg/mL
IC50 (µg/mL), pseudovirus neutralization [16]: > 50 µg/mL
IC50 (µg/mL), pseudovirus neutralization [17]: > 50 µg/mL
IC50 [18]: > 50 µg/mL
IC50 (µg/mL), pseudovirus neutralization [19]: 0.001 µg/mL
IC50 [20]: > 50 µg/mL
IC50 (µg/mL), pseudovirus neutralization [21]: 0.05 µg/mL
IC50 (µg/mL), pseudovirus neutralization [22]: > 50 µg/mL
IC50 (µg/mL), pseudovirus neutralization [23]: > 50 µg/mL
IC50 [24]: > 50 µg/mL
IC50 [25]: 0.484 µg/mL
IC50 [26]: 0.172 µg/mL
IC50, pseudovirus neutralization [27]: > 50 µg/mL
IC50 (µg/mL), pseudovirus neutralization [28]: 0.002 µg/mL
IC50 [29]: > 50 µg/mL
IC50 (µg/mL), pseudovirus neutralization [30]: > 50 µg/mL
IC50 (µg/mL), pseudovirus neutralization [31]: 31.5 µg/mL
IC50, single-round pseudovirus neutralization [32]: 0.006 µg/mL
IC50 (µg/mL), pseudovirus neutralization [33]: > 50 µg/mL
IC50 (µg/mL), pseudovirus neutralization [34]: 1.78 µg/mL
IC50, pseudovirus neutralization [35]: 4 µg/mL
IC50 (µg/mL), pseudovirus neutralization [36]: 3.77 µg/mL
IC50 (µg/mL), pseudovirus neutralization [37]: 0.557 µg/mL
IC50, pseudovirus neutralization [38]: > 50 µg/mL
IC50 [39]: 0.628 µg/mL
IC50 [40]: 4.72 µg/mL
IC50 [41]: 15.1 µg/mL
IC50 (µg/mL), pseudovirus neutralization [42]: 0.367 µg/mL
IC50, pseudovirus neutralization [43]: > 50 µg/mL
IC50, pseudovirus neutralization [44]: 0.174 µg/mL
IC50 (µg/mL), pseudovirus neutralization [45]: > 50 µg/mL
IC50 (µg/mL), pseudovirus neutralization [46]: 0.069 µg/mL
IC50 (µg/mL), pseudovirus neutralization [47]: 0.058 µg/mL
IC50 (µg/mL), pseudovirus neutralization [48]: > 50 µg/mL
IC50, pseudovirus neutralization [49]: 1.15 µg/mL
IC50 [50]: 5.86 µg/mL
IC50 (ug/ml), neutralizing activity [51]: > 10 µg/mL
IC50 [52]: > 50 µg/mL
IC50, pseudovirus neutralization [53]: > 50 µg/mL
IC50 (µg/mL), pseudovirus neutralization [54]: 9.7 µg/mL
IC50 (ug/ml), neutralizing activity [55]: > 10 µg/mL
IC50 [56]: > 50 µg/mL
IC50 (µg/mL), pseudovirus neutralization [57]: > 50 µg/mL
IC50 (µg/mL), pseudovirus neutralization [58]: > 50 µg/mL
IC50, pseudovirus neutralization [59]: > 50 µg/mL
